Experimental data taken from patent US20240209065A1.

Assays:
Test in all cases: cell-based or functional assay
[1] = biological target: S protein of authentic SARS-CoV-2 G614 virus (SARS-CoV-2) (UniProt P0DTC2)
[2] = biological target: S protein of RaTG13 on S-pseudotyped VSV (RaTG13 (clade 1b sarbecovirus))
[3] = biological target: S protein of Pangolin-GD on S-pseudotyped VSV (Pangolin-GD (clade 1b sarbecovirus))

Substance: DXP-604 IgG (antibody)
- IC50, microneutralization assay with authentic virus [1]: 0.3 nM
- IC50, S-pseudotyped VSV neutralization assay [2]: 0.01 nM
- IC50, S-pseudotyped VSV neutralization assay [3]: 0.05 nM
